Assay results taken from the DeepSol protein solubility set.

experiment: soluble on expression in E. coli; label from the status in PepcDB or PDB records

Q: For “MGSDKIHHHHHHMEITKRIEELREEMVESLKKFISINSVNPAFGGPGEKEKADWLEGLLRDFGFEVDRCDVRDDRGIWRSNIVAKIPGKNREKTLWIVTHIDTVPPGDLSLWETDPFVPVVKDGKVYGRGAEDNGGSMIASIYAGKALIDLGITPEYNFGLALVADEEAGSEYGIQYLIEKGLFSPEDMFLVPDAGNEKGDFIEIAEKSILWFKVMVNGKQGHASRPQTTENALRKGAHLITEIDEALHRKYSDRDELFDEPLSTFEPTRAEKTVDNVNTVPGRFVFYFDCRVLPRYNLDEVLSIVKSILDGRGAELEVVVKQPAPEPTPPDSELVVKLSNVLRSLRGLEAKVGGIGGGTCAAFFRKKGWPAVVWSTIDETAHQPNEYRRISHMVEDAKVFALLGTER”, which “soluble on expression in E. coli” value is on record?
A: not soluble

Q: For “MTAFLPPNLLALFEARPPVQYLPPCQDLLVDKNAKRAPMTGVAQYIQLFEDPKDTPAKIPVVTKAEAKEEKRRQKDELLAYKVEQGIATWNPAENPRASEDPYRTLFVGRINYETSESKLRREFEAYGKIKKLTMVHDEAGKPRGYAFIEYSDKAEMHTAYKKADGIKVDGKRLVVDYERGRTQKTWLPRRLGGGKGDTRKTREAKSVIEEREIASGFGGGYEDRDRERSGSRDRRQDSYRNGGGNDRDRRESSGGFRDNRGGGGGFGGGGRDRFNDRSGGGGYGGDRDRGGDRGGDRGGSRYSTGGGSGGGYRSGGGSSGGGGGGRYGDRR”, which “soluble on expression in E. coli” value is on record?
A: not soluble

Q: Which “soluble on expression in E. coli” value does the source give for “MPVLVFGAVNVHDGDTVAVVHQEESANATAFLDFLRLLKERHPNRMIALVLDNARIHHARMVKDFLREEGQCFHFLYLPPYSPQLNPIERLWKWLKDTVITNAFHKDRHEILQAVQRLIHYIPKRPEDVLRRLECAV” here?
A: not soluble

Q: For “MTQPLRQYREKRDFRATAEPAGAARRPRAAARASEGLSFVIQRHQARRLHYDFRLEIDGVLVSWAVPKGPSRDPSVKRLAVHVEDHPLEYGGFSGDIPKGQYGAGHVDIWDSGVWIPRGDPRQGLRRGKLHFALRGRRLAGDWVLVRMSGEQDQWLLRKEDDEALEHHHHHH”, which “soluble on expression in E. coli” value is on record?
A: soluble

Q: Which “soluble on expression in E. coli” value does the source give for “GPHSLRYFVTAVSRPGLGEPRFISVGYVDNTEFVRFDSDAENPRYEPRARWMEQEGPEYWERETQKAKGNEQSFRVDLRTLLGYYNQSKGGSHTIQVISGCEVGSDGRLLRGYQQYAYDGCDYIALNEDLKTWTAADMAALITKHKWEQAGEAERLRAYLEGTCVEWLRRYLKNGNATLLRTDSPKAHVTHHSRPEDKVTLRCWALGFYPADITLTWQLNGEELIQDMELVETRPAGDGTFQKWASVVVPLGKEQYYTCHVYHQGLPEPLTLRWEPPPST” here?
A: soluble

Q: For “MLPAVDDRCSGGYAGDVVADETIIDLAGPSEGLGVRPDKQRAAAYAGAYYIRDKTHQLGTGEKMREVTKRGFGIGVTAVSRVGSADDLYSVSPVITAISIDKPSPGSTVALGRALQMHQANGFAASVKTKANARLPYLCVDMGYSVRPDFTTVVHDHGFAPVMRYPVSRQTVWASEKPEFGSQSPGPVQINSAFYCPAALPLARQRRLVRRLNELLDEQDGFEAHDQALQKLLPLLMGTNSRPLKFVSKRKRSPETIPTYQIDLVCPAVQGRVKCPLKPESLIIAFDQPEVKPTWSADRYRCCSKSQIRHTYSSEQWKLAQWGMVPGSWEHAIYYEAARSLTEQRFSIMKSQHLSGREHLKWSPRREPMISVIIALWIAATNLAIQDSHVAKMPRPSSIKKQKRRLERDLGRALMSTPPRT”, which “soluble on expression in E. coli” value is on record?
A: not soluble

Q: Which “soluble on expression in E. coli” value does the source give for “MLSKVQCILNRRTMADVDVDVPSAAPVLDGAMDINTALQEVLKKSLIADGLVHGIHQACKALDKRQAVLCILAESFDEPNYKKLVTALCNEHQIPLIRVDSHKKLGEWSGLCKIDKEGKPRKVCGCSVVVIKDFGEETPALDVVKDHLRQNSLEHHHHHH” here?
A: not soluble

Q: Which “soluble on expression in E. coli” value does the source give for “MAHHHHHHMYADDLSIIVKGQSREDAIPTANMVLKKLHAWSQENGLAISPSKCEAAWFTLSTHTESDYDREGKRPLVVAGCEIPVMTMGASRTTKLLGMDLDPRLTLNVAASKQCAASSQRISQLRCIAHKEAGPSPHDLRMFVIGYGASKLRYGSELIWAVATDSAKNEMQKTYATLARIVSGVPSTVDPESALLEANMPPLHVLCLRARLSIFENTRACQMDWMRRPPPEPPPRAVFRISPLSRDELYAFVDAYTKEYGITQSSPREERFFRSSIPPWFAASAHRVTIGVELPTDHSITEEQLIREKRRVSEEALALHSHRSWILAKSGGVDVPKSAGVGILLSSLNSSEIIEKASINCGARPCSYRTESRALLLALERLIIPRIQHRHETLLVVADSQSLLAALNKGPLSQTDWTEDQIWQRLLTLTCAGWSVRLQFFTDIVEYMLTSLRISMRRRLWRLDNTRSMESHIYGIRIC” here?
A: not soluble

Q: Which “soluble on expression in E. coli” value does the source give for “MGSDKIHHHHHHMDSLLFGISGLPNRNSNKKFTYKTGIEYLREIGLDAMELPFVRSVNITDKNKNEVLDTKLKNDFYLSAHGSYFINLNADEEEKIEKSLERIIKGAEGLKKVQGKSLIFHPGFYLKDSKEETFETIKENLLRLPDLGVDYRLETTGKGTQFGSLEENVALCKAVDTCKLCIDFSHIHARYNGSLKSYDDFARILNYVGNELGDEGLNDMHIHLSGINYTAKGERNHLPFEESDFNYKDCLKAFRDFDIKGCVICESPVLEHDALLLKNYYETL” here?
A: not soluble

Q: For “MGSDKIHHHHHHMNMEINPSEYKILIVDDVMSNVLLLKVLLTNEKFNIVTASNGNQALDQVKKENPDLILLDVMMPDMSGFEVSQKLKADPEAAHIPIIFLTALNSTADIVKGFQVGGNDFISKPFNKEELIIRVSHQISLVAAKRIIEAKTEELKKTIIGRDKLYSVIAHDLRSPMGSIKMVLNMLILSLPKEKIGEDMYELLTMANQTTEDVFSLLDNLLKWTKSQIGKLKVVYQDIDMVEVVEGVGEIFAMVAGLKNIRLRIESPECQAVHADIDMIKTVIRNLISNAIKFSNEGSEVLIKVEESDGMSVVSVKDSGCGIDEESQKKLLHTDTHFSTFGTNNEEGSGLGLLLCQDFVVKNGGKLWFTSVKDEGSTFYFSIPLKK”, which “soluble on expression in E. coli” value is on record?
A: not soluble

Q: With “MTTKEITLDENGFATEAGFITVYNYSGETREYISTSTEYLAVGVGIPACSCLDAPVTHKAGYAICRSADFNSWEYVPDHRGEIVFSTETGESKEITAPGDYPDNTTTIAPLTPYDKWDGEKWVTDTEAQHSAAVDAAEAQRQSLIDTAMASISLIQLKLQAGRKLTQAETTRLNAVLDYIDAVTATDTSTAPDVIWPELPEA” as the sequence, how does the “soluble on expression in E. coli” value read?
A: not soluble

Q: Which “soluble on expression in E. coli” value does the source give for “TKEGMLHYKAGTSYLGKEHWKTCFVVLSNGILYQYPDRTDVIPLLSVNMGGEQCGGCRRANTTDRPHAFQVILSDRPCLELSAESEAEMAEWMQHLCQAVSKGVIPQGVAPS” here?
A: soluble

Q: With “MDILLMDTIQQEVLALFREEIPGYLDSNWKEIPLELDSDLFEAPGDDLHEALDKFEKKFNVDLSQVKWSCYFPWENTPLLTRWFKLKREDVERTRKPLTIRMFSESAKAGKWLYD” as the sequence, how does the “soluble on expression in E. coli” value read?
A: not soluble

Q: Which “soluble on expression in E. coli” value does the source give for “MKFICPLFVVNNMEISRNFYEKVLNQKVQYDFGENVSFESGFAIHLKPHFSELTGINRNDIIQKSNNSELYFEEEDLDSFLKKLKEMNSIEYVHELKEQPWGQRVIRFYDPDMHIIEVGEPMESVVKRLLSEGLSVEETSKRTLMPEEFVRQFLLEHHHHHH” here?
A: soluble

Q: With “MWRELWRVVEKSDIIVQIVDARNPLLFRSKDLDDYVKEVDPAKQILLLVNKADLLKPEQQASWREYFEKENIKVIFWSAIDEVLDPIDEDAVETSNPSTSTHMFVTNKDELIAKFKELGHVSDEPSAKPVMVGMVGYPNVGKSSTINKLAGGKKVSVSATPGKTRHFQTIHIDSQLCLCDCPGLVMPSFSFGRSEMFLNGILPVDQMRDHFGPTSLLLSRVPVHVIEATYSIMLPEMQSPSAINLLNSLAFMRGFMASSGIPDCSRAARLMFKDVVSGKLIWAAAPPGVEQEEFDRISYPDKKTRDIGRVQMEKLAKLQLLEGDELKGSQFDSQHFVGSIGVAHVRDSKALPQTLGTVIPTAPTENNGKKHYKGKKDKLRRIYNE” as the sequence, how does the “soluble on expression in E. coli” value read?
A: not soluble

Q: Which “soluble on expression in E. coli” value does the source give for “MEFMSAPANAVAADDATAIALKYNQDATKSERVAAARPGLPPEEQHCANCQFMQADAAGATDEWKGCQLFPGKLINVNGWSASWTLKAG” here?
A: soluble

Q: Which “soluble on expression in E. coli” value does the source give for “MQTSFCVLVSIIERMPTWNDIKVRNPQHSHNYAKRWENLEAEGNDINGEARLIDALVQRGSKILDAGCGQGRVGGYLSARGHIVTGIDIDDYLISEAEKKFPSATWHVGDLGSESIPDQGFDIAVCAGNVITFIEPDKQEAALAHIFEALRPNGRCIIGFGAGRGYVFPQFFEDARNVGFVIENNFESWGLNPLTNRSQFLVAFLRKPELEHHHHHH” here?
A: not soluble

Q: For “GSPGIPGSTSELEEDFAKILMLKEERIKELEKRLSEKEEEIQELKRKLHKCQSVLPVPSTHIGPRTT”, which “soluble on expression in E. coli” value is on record?
A: soluble

Q: With “MSLKFLLTTAQGIEDIAKREVSLLLKKLGISFQIEEKPLGIEGRLLLEAEKAYYVDEKGRKRELSISTYLNENSRLLHRVIIEIASEKFNGIEKDESEEALKRIKDFVSSLPVEQFVKVSETFAVRSFRKGDHNITSIDIARTVGEAIFERLSRFGTPLVNLDHPAVIFRAELIKDVFFLGIDTTGDSSLHKRPWRVYDHPAHLKASIANAMIELAELDGGSVLDPMCGSGTILIELALRRYSGEIIGIEKYRKHLIGAEMNALAAGVLDKIKFIQGDATQLSQYVDSVDFAISNLPYGLKIGKKSMIPDLYMKFFNELAKVLEKRGVFITTEKKAIEEAIAENGFEIIHHRVIGHGGLMVHLYVVKGIITITTDPNSSSVDKLAAALEHHHHHH” as the sequence, how does the “soluble on expression in E. coli” value read?
A: soluble

Q: For “MAERGFREGTLEEASKILGVDKSSLASLSNLLAEKGVVEVEERVEEHYVLTERGRDALERGLPEEKLVLFLAGRGGEASVEEVRRALGEEAGIALGQAARKGLVVIAGGVVRLAVDQAEALKTITPLKKLLENVASGSKPTVGDELLREALSRGLIRREARRSIVLRLKVNPAEALARARVEAAVLTRDMLKSGEWRRLRFKPYNVKAEPPRVLPARRHFLAEFIERLRDILRELGFREVRGPLVELELFNFDVLFQAQDHPAREIHDSLWIKSPRRGDLSGYSDLVERVASVHERGWKYRWSPEVASRYILRSQTTAVSARILATRPNPPARFFTVGKVFRSDAVGPTRLPEFHQLDGIEGDEGYTFRDLLGRLDEIASMLGLKLKFKPAYFPFTEPSVEGYVKLPNGRWLELFGAGMFRPEVLEAVGVDYPVGAWGFGIERLAMAFYGVSDIRKLYTRNVDEVREMRVRWL”, which “soluble on expression in E. coli” value is on record?
A: soluble

Q: With “MGSDKIHHHHHHMELRHLRYFAATAEELNFTRAANRLHISQPAVSRLIKELECELGAQLFTRERFGLRLTAAGEKFLFYARRVLQDCEEGIRAVRENGLNHQKLTIGFISTAMESFLSDALVRLSQERPDIDVTVNEMSPGDQIAALRYRQIDLGFIGNPHDGAGDEFELYVLREVPLVAVLPVRHRLAGRSEICIGELEGDTFIGYLEDKFPGRNRVISTACARAGFRPKFELKAGSLIEVLGMIGTGKGVCLMPSDVAGLPHPNVAFIPLRDPLDPVRLAAAWLPGNTNPALHQLIAILAADCSSDTGRTSR” as the sequence, how does the “soluble on expression in E. coli” value read?
A: not soluble

Q: With “MHMNAEEIGMALLNGRKELGLRQGELADLAGVSERFIRDVEKGKTTVRLDKVIDVLRVLGLELSVGIHDPLKVNQ” as the sequence, how does the “soluble on expression in E. coli” value read?
A: not soluble
